Where two headings read alike, the source gives them in different places.

Common to all, as to experiment: SPR
In general terms: Surface plasmon resonance follows binding to a sensor surface in real time, without labels.

The target of one assay is anti-IL-17A.
The target of assay [1] is T1, anti-IL-17A-sST2 (mouse, UniProt P14719 27-332).
The target of another assay is T2, mouse IL-33 (mouse, UniProt Q8BVZ5 1-266).
T2 chain: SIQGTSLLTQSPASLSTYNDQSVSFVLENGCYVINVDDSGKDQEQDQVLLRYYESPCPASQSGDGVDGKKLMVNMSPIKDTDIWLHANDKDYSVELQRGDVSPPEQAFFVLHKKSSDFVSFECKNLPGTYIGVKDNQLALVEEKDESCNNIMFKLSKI

For assay [2], the target named is T1, anti-IL-17A-sST2. The source holds these as a separate data set.

B1: mouse IL-17A (protein)
chain: AAIIPQSSACPNTEAKDFLQNVKVNLKVFNSLGAKVSSRRPSDYLNRSTSPWTLHRNEDPDRYPSVIWEAQCRHQRCVNAEGKLDHHMNSVLIQQEILVLKREPESCPFTFRVEKMLVGVGCTCVASIVRQAA
As to B1, in the assay with anti-IL-17A, the Kd worked out at 0.0265 nM and the koff came out at 1.57e-05 s⁻¹. In addition, in the assay with anti-IL-17A-sST2 [1], the Kd turned out to be 0.0457 nM and the koff was determined as 2.17e-05 s⁻¹.

B2: sST2-Fc (Fc fusion)
chain: SKSSWGLENEALIVRCPQRGRSTYPVEWYYSDTNESIPTQKRNRIFVSRDRLKFLPARVEDSGIYACVIRSPNLNKTGYLNVTIHKKPPSCNIPDYLMYSTVRGSDKNFKITCPTIDLYNWTAPVQWFKNCKALQEPRFRAHRSYLFIDNVTHDDEGDYTCQFTHAENGTNYIVTATRSFTVEEKGFSMFPVITNPPYNHTMEVEIGKPASIACSACFGKGSHFLADVLWQINKTVVGNFGEARIQEEEGRNESSSNDMDCLTSVLRITGVTEKDLSLEYDCLALNLHGMIRHTIRLRRKQPIDHR
For the molecule B2, the koff in the assay with mouse IL-33 was 0.000199 s⁻¹.

B3: mouse IL-33 (ligand)
chain: MRPRMKYSNSKISPAKFSSTAGEALVPPCKIRRSQQKTKEFCHVYCMRLRSGLTIRKETSYFRKEPTKRYSLKSGTKHEENFSAYPRDSRKRSLLGSIQAFAASVDTLSIQGTSLLTQSPASLSTYNDQSVSFVLENGCYVINVDDSGKDQEQDQVLLRYYESPCPASQSGDGVDGKKLMVNMSPIKDTDIWLHANDKDYSVELQRGDVSPPEQAFFVLHKKSSDFVSFECKNLPGTYIGVKDNQLALVEEKDESCNNIMFKLSKI
In the assay with anti-IL-17A-sST2 [2], B3 returned an off-rate (koff) of 0.000143 s⁻¹.

Usually Kd stands for the constant that tells how readily two partners part at equilibrium. As usually defined, the koff is the first-order rate constant of dissociation. Lower therefore signals a long-lived complex.

For the origin of these results see publication PMC11117730 (2024).
